What all share (experiment): AUC
The target of experiment [1] is wild-type, full length HIV-1 capsid protein (CAFL, residues 1-231) (HIV-1) (UniProt P12493).
The target of experiment [2] is HIV-1 capsid C-terminal domain construct CA144-231 (HIV-1) (UniProt P12493).
For experiment [3], the target named is HIV-1 capsid C-terminal domain construct CA146-231 (HIV-1) (UniProt P12493).
Experiment [4] has the same target. This is another data set of the same source.

pKd: −log10 of the molar value. Where two headings read alike, the source gives them in different places.

In experiment [1], “wild-type, full length HIV-1 capsid protein (CAFL, residues 1-231) (from UniProt P12493) (natural protein)” had a negative logarithm of the Kd (pKd) of 4.70. Turning to “HIV-1 capsid C-terminal domain construct CA144-231 (from UniProt P12493 276-363) (domain or fragment)”, the pKd in experiment [2] was 4.80.

As for “HIV-1 capsid C-terminal domain construct CA146-231 (from UniProt P12493 278-363) (domain or fragment)”, the negative logarithm of the Kd (pKd) in experiment [3] is 4.62; in experiment [4] it was 4.64.

Values taken from paper PMC3946434.
